# Assay results taken from patent US9616101B2, “Differentiation marker and differentiation control of eye cell” (Kyoto Prefectural Public University Corporation, priority 2012, dated 2017).
# B1: R-spondin 1: Recombinant Human R-spondin 1 (R&D Cat. 4645-RS); ligand of GPR49/LGR5 (protein, listed as Homo sapiens)
# chain: MRLGLCVVALVLSWTHLTISSRGIKGKRQRRISAEGSQACAKGCELCSEVNGCLKCSPKLFILLERNDIRQVGVCLPSCPPGYFDARNPDMNKCIKCKIEHCEACFSHNFCTKCKEGLYLHKGRCYPACPEGSSAANGTMECSSPAQCEMSEWSPWGPCSKKQQLCGFRRGSEERTRRVLHAPVGDHAACSDTKETRRCTVRRVPCPEGQKRRKGGQGRRENANRNLARKESKEAGAGSRRRKGQQQQQQQGTVGPLTSAGPA
# Key:
# [1] = system: corneal endothelial cell of rabbit sclerocorneal section; test: Organ culture of rabbit sclerocorneal section with R-spondin 1: corneal endothelial cell density (ZO-1); type: cell-based, white rabbit; details: control 3674
# Method: Eyeballs of white rabbit (Nacalai) euthanized for another object were purchased, and a sclerocorneal section was prepared. The sclerocorneal section was cultured in an incubator at 37° C. for 1 week in DMEM (INVITROGEN, catalog No.: 12320) and 10% fetal bovine serum (FBS) (BIOWEST, catalog No.: 51820-500). […] A corneal endothelial cell was subjected to nuclear staining with DAPI, and the Ki67-positive cell rate was calculated. In addition, a corneal endothelial cell was immunostained with ZO-1, and the cell density was calculated.
# [2] = system: cultured human corneal endothelial cell; test: Culture of human corneal endothelial cells with or without RSPO: cell morphology and cell density; type: cell-based
# From the text: GPR49/LGR5 was an orphan receptor of a G protein-coupled receptor superfamily, and a ligand thereof was not known previously. […] In order to determine the function of RSPO on CEC differentiation, the present inventors cultured primate CEC with human recombinant RSPO, or without human recombinant RSPO. […] In order to determine the function of RSPO on CEC proliferation, the present inventors performed immunohistochemical research on Ki67. […] In view of these findings, the present inventors considered that among a RSPO family, particularly, RSPO1 can play an important role in maintenance of CEC.
# Finally, in order to further determine influence of RSPO1 on CEC, the present inventors maintained a secondary culture of human CEC in the presence or absence of RSPO1. […] The cell density of a RSPO1-treated cell increased as compared with that of a non-treated cell (FIG. 6B-E). In order to verify which pathway regulated this type of corneal endothelial MT, the present inventors investigated the expression level of a Wnt/β-catenin-associated molecule using Western blotting analysis. […] Further, the protein level of a cell transfected with NT and GPR49/LGR5 and treated with RSPO1 decreased as compared with that of a cell group not treated with RSPO1 (FIG. 6B-F).
# A cultured human corneal endothelial cell was cultured for 7 days under conditions of 37° C. and 5% CO2, with being divided into a group of addition of RSPO1 (50 ng/ml) and a group of addition of no RSPO1. […] From the above result, the effect of suppressing differentiation of a corneal endothelial cell was recognized in RSPO1.
# [3] = system: human corneal endothelial cell; test: Ki67 immunostaining of human corneal endothelial cells incubated with RSPO1 to 4; type: cell-based
# From the text: A corneal tissue was embedded with OCT compound (catalog No.: 4583; Sakura Finetek, Tokyo, Japan), and frozen in liquid nitrogen to prepare a frozen corneal tissue section. The frozen block was sliced to 8 μm, applied on a silane-coating slide, and air-dried. For preparing the whole tissue section, a Descemet's membrane containing a corneal endothelial cell was peeled from a corneal tissue, allowed to stand in ice-cooled 100% acetone for 30 seconds, applied on a silane-coating slide, and air-dried. As a cultured corneal endothelial cell, a cell cultured on a LabTek 8-well plastic chamber slide was used. Ice-cooled 100% acetone was added to a corneal tissue and the cultured cell, the resultant was allowed to stand at 4° C. for 15 minutes to fix the cell. After shaking and washing with 0.15% TritonX/PBS-, 1% bovine serum albumin (catalog No.: A4503BSA; Sigma-Aldrich, St. Louis, Mo.) was added, and allowed to stand at room temperature for 30 minutes to perform blocking. A primary antibody was diluted with 1% BSA, and incubated at room temperature for 1 hour. As a primary antibody to be used, anti-rabbit GPR49/LGR5 (catalog No.: GTX71143; 1: 200; GeneTex Inc., San Antonio, Tex.), anti-rabbit Nestin (catalog No.: PRB-570C; 1: 200; COVANCE, Berkeley, Calif.), anti-mouse ABCG2 (catalog No.: NC_236; 1: 2; Kamiya biomedical CO., Seattle, Wash. USA), anti-mouse Ki-67 (catalog No.: 556003; 1: 200 BD Pharmingen™ NJ, USA), anti-rabbit Na^+/K^+ ATPase (catalog No.: A132; 1: 100; Zymed), and anti-rabbit ZO1 (Zymed Laboratries Inc., South San Francisco, Calif.) were used. The resultant was washed with 0.15% Triton/PBS- twice, and PBS- once.
# A secondary antibody was diluted with a mixed solution of 1% BSA and 0.15% TrironX/PBS-, and incubated at room temperature for 30 minutes. As a secondary antibody to be used, Alexa™ Fluor 488-labeled (conjugated) goat anti-rabbit IgG (catalog No.: A11034; 1: 1500; Molecular Probe-Invitrogen) and Alexa™ Fluor 488-labeled (conjugated) goat anti-mouse IgG (catalog No.: A11029; 1: 1500; Molecular Probe-Invitrogen) were used. The secondary antibody was shaken and washed with 0.15% Triton/PBS- twice, and PBS- once, subjected to nuclear staining with propidium iodide (catalog No.: SP29004-41; PI; Nacalai Tesque, Inc. Kyoto, Japan), and embedded while covered with a cover glass.
# In order to investigate a relationship between R-sporadin 1 (RSPO1), R-spondin 2 (RSPO2), R-spondin 3 (RSPO3), or R-spondin 4 (RSPO4) and differentiation of a corneal endothelial cell, the relationship was studied using RSPO1. Reagents used are as follows. • RSPO1 R&D systems catalog No.: 4645-RS • RSPO2 R&D systems catalog No.: 3266-RS • RSPO3 R&D systems catalog No.: 3500-RS • RSPO4 R&D systems catalog No.: 4575-RS
# Then, for the purpose of investigating the influence of RSPO on cell proliferation, RSPO1 to 4 were incubated into a human corneal endothelial cell under conditions of 37° C. and 5% CO2 for 1 day. Thereafter, Ki-67 being a cell proliferation marker was immunostained.
molecule,measurement,setting,value
B1,corneal endothelial cell density,"[1]; 1 ng/ml R-spondin 1, 1 week",4314 cells/mm^2
same,corneal endothelial cell density,"[1]; 10 ng/ml R-spondin 1, 1 week",4626 cells/mm^2
same,corneal endothelial cell density,"[1]; 100 ng/ml R-spondin 1, 1 week",5037 cells/mm^2
same,cell morphology / in vitro CEC differentiation (phase contrast),[2]; 50 ng/ml (FIG. 6C-B),compact and uniform hexagonal cell having a smaller size
same,cell form in secondary culture of human CEC,"[2]; RSPO1 50 ng/ml (FIG. 6B-E), without RSPO1 fibroblast-like phenotype",maintained its hexagonal form
same,morphology of a cell,"[2]; RSPO1 50 ng/ml, 7 days, non-addition group differentiated into fibroblast-like cells",maintained in a cobblestone manner
same,cell density as compared with a non-treated cell,"[2]; secondary culture of human CEC, RSPO1 50 ng/ml",increased
same,level of the Ki67(+) cell ratio,"[3]; 50 ng/ml (FIG. 6C-C), as compared with other RSPOs",dramatically increased
same,Ki67 staining,[3]; R-spondin 1 1000 ng/ml (FIG. 11),staining is also observed
same,Ki67-positive cell rate as compared with a control,"[3]; RSPO1 50 ng/ml, 500 ng/ml (FIG. 11)",increased
same,proliferation of a human corneal endothelial cell (Ki-67 immunostain),"[3]; incubated 1 day, 37° C., 5% CO2",statistically significantly promoted proliferation
